From article PMC2734569, “Functional mapping of the fission yeast DNA polymerase δ B-subunit Cdc1 by site-directed and random pentapeptide insertion mutagenesis” (BMC Molecular Biology, 2009)

Experiments:
Assay in all cases: two-hybrid; LexA-Cdc1 bait (pBTM116 or pBTM116BN) with Gal4 activation domain-Cdc27 prey (pGAD2F-Cdc27) in S. cerevisiae CTY10-5d; ONPG liquid culture beta-galactosidase assay, mean of triplicates, as percent of wild-type Cdc1
Conditions in all cases: partners not purified
[1] = target: T1, Cdc1 (fission yeast DNA polymerase delta B-subunit), wild type (Schizosaccharomyces pombe, UniProt P87324 1-462)
T1 construct: DNA polymerase delta B-subunit Cdc1, S. pombe; cdc1+ cDNA on a 1.5 kb BamHI fragment from pBTM116-Cdc1, ORF 1386 bp; also called WT; LexA-Cdc1; source: yeast two-hybrid fusion, in S. cerevisiae CTY10-5d
T1 sequence (looked up): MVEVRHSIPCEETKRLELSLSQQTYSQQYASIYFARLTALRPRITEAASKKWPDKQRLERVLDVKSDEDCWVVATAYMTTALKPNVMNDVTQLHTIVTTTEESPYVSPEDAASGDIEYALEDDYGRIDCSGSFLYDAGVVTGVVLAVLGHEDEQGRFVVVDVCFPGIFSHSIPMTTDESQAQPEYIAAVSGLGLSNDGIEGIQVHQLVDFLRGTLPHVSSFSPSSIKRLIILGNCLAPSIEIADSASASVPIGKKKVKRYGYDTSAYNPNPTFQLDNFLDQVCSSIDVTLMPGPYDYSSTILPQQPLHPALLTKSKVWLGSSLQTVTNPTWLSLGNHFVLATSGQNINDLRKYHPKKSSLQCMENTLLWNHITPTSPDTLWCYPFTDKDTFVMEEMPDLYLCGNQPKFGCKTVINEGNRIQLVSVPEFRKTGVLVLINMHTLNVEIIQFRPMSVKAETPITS

Cdc1-J22 = target: T2, Cdc1-J22 (Schizosaccharomyces pombe, UniProt P87324 1-462, Arg-GlyValProLeuArg-Gly)
T2 construct: Cdc1, S. pombe, with a pentapeptide inserted after residue 212; source: yeast two-hybrid fusion, in S. cerevisiae CTY10-5d
T2 sequence (looked up): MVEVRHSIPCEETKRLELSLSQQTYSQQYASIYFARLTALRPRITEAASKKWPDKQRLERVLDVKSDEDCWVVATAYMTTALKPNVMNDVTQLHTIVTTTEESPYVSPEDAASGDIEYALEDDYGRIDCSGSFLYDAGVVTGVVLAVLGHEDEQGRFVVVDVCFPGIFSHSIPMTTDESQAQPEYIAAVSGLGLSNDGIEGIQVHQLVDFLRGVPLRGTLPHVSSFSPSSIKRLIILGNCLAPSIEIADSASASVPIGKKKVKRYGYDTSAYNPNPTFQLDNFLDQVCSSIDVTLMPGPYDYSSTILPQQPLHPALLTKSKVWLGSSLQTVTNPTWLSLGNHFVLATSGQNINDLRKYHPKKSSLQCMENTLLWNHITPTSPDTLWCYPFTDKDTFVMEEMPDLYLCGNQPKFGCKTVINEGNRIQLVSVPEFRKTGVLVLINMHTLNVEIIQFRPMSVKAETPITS

Cdc1-A1 = target: T3, Cdc1-A1 (Schizosaccharomyces pombe, UniProt P87324 1-462, Pro292Ala)
T3 construct: Cdc1, S. pombe, point mutant; source: yeast two-hybrid fusion, in S. cerevisiae CTY10-5d
T3 sequence (looked up): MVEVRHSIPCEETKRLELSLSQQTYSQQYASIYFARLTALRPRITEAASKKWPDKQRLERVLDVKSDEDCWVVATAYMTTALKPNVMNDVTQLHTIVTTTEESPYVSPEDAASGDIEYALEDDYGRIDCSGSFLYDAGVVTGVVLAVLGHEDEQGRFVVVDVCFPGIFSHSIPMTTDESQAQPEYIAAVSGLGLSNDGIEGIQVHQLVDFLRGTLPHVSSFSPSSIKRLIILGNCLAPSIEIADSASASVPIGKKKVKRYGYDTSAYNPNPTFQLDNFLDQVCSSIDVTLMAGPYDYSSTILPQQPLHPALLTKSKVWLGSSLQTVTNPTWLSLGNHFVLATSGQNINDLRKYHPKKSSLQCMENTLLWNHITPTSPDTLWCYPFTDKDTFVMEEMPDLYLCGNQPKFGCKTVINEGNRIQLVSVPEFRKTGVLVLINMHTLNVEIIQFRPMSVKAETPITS

Cdc1-J2 = target: T4, Cdc1-J2 (Schizosaccharomyces pombe, UniProt P87324 1-462, Tyr-ArgGlyThrProTyr-Ser)
T4 construct: Cdc1, S. pombe, with a pentapeptide inserted after residue 25; also called J18; J20; source: yeast two-hybrid fusion, in S. cerevisiae CTY10-5d
T4 sequence (looked up): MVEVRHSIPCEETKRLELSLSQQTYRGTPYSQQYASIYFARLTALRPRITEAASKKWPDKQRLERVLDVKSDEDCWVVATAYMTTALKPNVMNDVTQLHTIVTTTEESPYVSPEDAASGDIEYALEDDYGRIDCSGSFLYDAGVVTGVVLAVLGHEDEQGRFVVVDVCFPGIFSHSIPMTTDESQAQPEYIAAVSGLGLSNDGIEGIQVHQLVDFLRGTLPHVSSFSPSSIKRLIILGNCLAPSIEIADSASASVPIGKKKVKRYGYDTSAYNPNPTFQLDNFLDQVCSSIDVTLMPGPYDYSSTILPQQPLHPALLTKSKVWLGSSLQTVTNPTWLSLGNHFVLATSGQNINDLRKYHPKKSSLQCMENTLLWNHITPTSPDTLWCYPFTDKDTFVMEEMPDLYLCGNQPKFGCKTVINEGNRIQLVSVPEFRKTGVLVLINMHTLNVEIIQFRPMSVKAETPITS

two-hybrid beta-galactosidase activity, % of wild-type Cdc1 [1]: 100%
two-hybrid beta-galactosidase activity, % of wild-type Cdc1 (Cdc1-J22): 7%
two-hybrid beta-galactosidase activity, % of wild-type Cdc1 (Cdc1-A1): 44%
two-hybrid beta-galactosidase activity, % of wild-type Cdc1 (Cdc1-J2): < 1%
B1: Cdc27 (fission yeast DNA polymerase delta C-subunit) (natural protein, Schizosaccharomyces pombe, UniProt P30261 1-372, looked up)
chain: MEEWRNFLDIKVINESSLVTVDNLSLQLDISSEKAQEYLNMFYQGNDFLYPIYLIHGQPIDDEINLEIDEESQPISNFPVLQYILCDKSSLQEKQSRLKSGYKTVIFALSSAPLSDFDELLPAVYEIREKDVLYKKEDADKYGFIFNENSVPRVLKKAPSTHSPQLSVPSKTSTIDKTDTRSTEKTKGKDIFSNARNQKGNSSRKNKKAPLENHKEKEPLLPKEEKLSEQAKRERDDLKNIMQLEDESVSTTSVHDSEDDNLDSNNFQLEIGTEAKSAAPDEPQEIIKSVSGGKRRGKRKVKKYATTKDEEGFLVTKEEEVWESFSEDENISTGTSNVVRNKPTTVNIATKKKNTAQSKPQQKSIMSFFGKK
notes: DNA polymerase delta C-subunit Cdc27, S. pombe; prey plasmid pGAD2F-Cdc27; also called pGAD2F-Cdc27; source: yeast two-hybrid fusion, in S. cerevisiae CTY10-5d
